Measured values as given in PMC11021519, “Niche Tet maintains germline stem cells independently of dioxygenase activity” (The EMBO Journal, 2024).

Biological target: T1, Myc-Tet-C (Drosophila, UniProt M9NEY8-5 1846-2921)
T1 construct: Drosophila Tet, C-terminal domain, aa1846-2921 of Tet-PF (FBpp0306013); also called C-terminal domain of Tet; source: bacteria (E. coli), pET32a(+), purified (Ni-NTA); not shown: Myc, N-terminal, kept
Assay: pull-down; in vitro binding of two purified proteins (10 μg of each), overnight at 4 °C in Buffer A (50 mM Tris-HCl pH 7.5, 50 mM NaCl, 5% glycerol, 1 mM EDTA, 0.1% Igepal CA-630) with Dynabeads Protein G and 5 μg antibody (anti-HA, anti-Myc or anti-Strep); six washes; immunoblot
Details: both partners purified

T1 sequence (M9NEY8 1785-2860): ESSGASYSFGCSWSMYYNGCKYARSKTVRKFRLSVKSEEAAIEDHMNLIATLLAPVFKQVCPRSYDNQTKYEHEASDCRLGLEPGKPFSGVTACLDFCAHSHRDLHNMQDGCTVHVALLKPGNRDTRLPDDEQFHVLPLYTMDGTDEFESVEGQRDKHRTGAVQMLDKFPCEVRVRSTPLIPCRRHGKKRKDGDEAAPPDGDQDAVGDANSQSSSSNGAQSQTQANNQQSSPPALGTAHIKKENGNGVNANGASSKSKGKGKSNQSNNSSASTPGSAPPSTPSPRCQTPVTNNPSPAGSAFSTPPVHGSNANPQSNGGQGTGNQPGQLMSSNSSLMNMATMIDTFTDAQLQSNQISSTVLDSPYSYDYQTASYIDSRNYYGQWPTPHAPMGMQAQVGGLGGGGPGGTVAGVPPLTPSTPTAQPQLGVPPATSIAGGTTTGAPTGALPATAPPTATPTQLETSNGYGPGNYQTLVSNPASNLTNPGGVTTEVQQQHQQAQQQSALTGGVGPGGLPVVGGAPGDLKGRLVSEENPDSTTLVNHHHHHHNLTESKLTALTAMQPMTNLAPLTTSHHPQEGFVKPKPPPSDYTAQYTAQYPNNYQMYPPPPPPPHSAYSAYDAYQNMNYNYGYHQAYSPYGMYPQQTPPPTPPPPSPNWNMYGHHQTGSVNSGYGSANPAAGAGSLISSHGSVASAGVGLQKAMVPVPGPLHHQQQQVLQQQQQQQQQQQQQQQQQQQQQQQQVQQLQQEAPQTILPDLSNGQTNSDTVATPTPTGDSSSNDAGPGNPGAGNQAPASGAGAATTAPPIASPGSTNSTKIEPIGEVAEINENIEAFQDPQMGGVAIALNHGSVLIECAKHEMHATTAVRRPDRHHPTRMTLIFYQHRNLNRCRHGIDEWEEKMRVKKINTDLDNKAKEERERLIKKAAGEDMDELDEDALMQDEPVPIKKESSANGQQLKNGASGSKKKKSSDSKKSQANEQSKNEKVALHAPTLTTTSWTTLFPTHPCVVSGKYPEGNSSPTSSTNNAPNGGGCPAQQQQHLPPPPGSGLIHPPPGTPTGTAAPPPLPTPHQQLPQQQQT

Row | Binder | binding result
1 | Strep-Bap55 (natural protein, Drosophila, UniProt Q7K012 1-425, looked up, Drosophila Bap55, full-length Bap55-PA; pFastBac-HTB vectors usually also add an N-terminal His6 tag; source: insect cells (baculovirus), purified (Strep-Tactin XT, Superdex 200)) MSGGTMLYGGDEIGALVFDPGHHSLRVGYAQEDSPKAEIPSVVGIGAAPETNLDPETKTDNNATPNNADQRKFYVDTNYVTVPRSNMEVQTYMKDGMIDNWDLFEKVIDYAYANVIQSEPEYHPVLFSEASWNVRNNREKLTELMFEKYNVPAFFLVKNAVLAAFSSGRATALVVDSGATHTSAVPVHEGYVLSQAVVKSPLGGDFLSRQCRQHLEKHGIDLSPVYKIASKDVVKERDNGRFTLRKLPENLTQSWQNYMLQLMMQDFQMNVLQVLENPFDERVAAQIPTVHYEFPNGYHQDFGSERFKIAESLFDNAMLGAGQLASTSVGMCDADVRLSLFGSVVVTGGNTLLQGFPERLNRDLQLRAPSNTRLKMISANGSVERRFGAWIGGSILASIGTFQQMWISSQEYEEAGKSQVERKCP | binds
2 | HA-Stat92E (natural protein, Drosophila, UniProt Q24151 1-761, looked up, Drosophila Stat92E, full-length isoform Stat92E-PF; source: bacteria (E. coli), pET32a(+), purified (Ni-NTA); not shown: HA, N-terminal, kept) MSLWKRISSHVDCEQRMAAYYEEKGMLELRLCLAPWIEDRIMSEQITPNTTDQLERVALKFNEDLQQKLLSTRTASDQALKFRVVELCALIQRISAVELYTHLRSGLQKELQLVTEKSVAATAGQSMPLNPYNMNNTPMVTGYMVDPSDLLAVSNSCNPPVVQGIGPIHNVQNTGIASPALGMVTPKVELYEVQHQIMQSLNEFGNCANALKLLAQNYSYMLNSTSSPNAEAAYRSLIDEKAAIVLTMRRSFMYYESLHEMVIHELKNWRHQQAQAGNGAPFNEGSLDDIQRCFEMLESFIAHMLAAVKELMRVRLVTEEPELTHLLEQVQNAQKNLVCSAFIVDKQPPQVMKTNTRFAASVRWLIGSQLGIHNNPPTVECIIMSEIQSQRFVTRNTQMDNSSLSGQSSGEIQNASSTMEYQQNNHVFSASFRNMQLKKIKRAEKKGTESVMDEKFALFFYTTTTVNDFQIRVWTLSLPVVVIVHGNQEPQSWATITWDNAFAEIVRDPFMITDRVTWAQLSVALNIKFGSCTGRSLTIDNLDFLYEKLQREERSEYITWNQFCKEPMPDRSFTFWEWFFAIMKLTKDHMLGMWKAGCIMGFINKTKAQTDLLRSVYGIGTFLLRFSDSELGGVTIAYVNENGLVTMLAPWTARDFQVLNLADRIRDLDVLCWLHPSDRNASPVKRDVAFGEFYSKRQEPEPLVLDPVTGYVKSTLHVHVCRNGENGSTSGTPHHAQESMQLGNGDFGMADFDTITNFENF | binds
